Molecular target: beta-galactosidase (β-gal), negative control expressed in HEK293T cells (Escherichia coli K12 lacZ, assumed, UniProt P00722 = β-galactosidase)
Assay: immunostaining of cells or tissue

beta-galactosidase (β-gal), negative control expressed in HEK293T cells, sequence (P00722 whole entry): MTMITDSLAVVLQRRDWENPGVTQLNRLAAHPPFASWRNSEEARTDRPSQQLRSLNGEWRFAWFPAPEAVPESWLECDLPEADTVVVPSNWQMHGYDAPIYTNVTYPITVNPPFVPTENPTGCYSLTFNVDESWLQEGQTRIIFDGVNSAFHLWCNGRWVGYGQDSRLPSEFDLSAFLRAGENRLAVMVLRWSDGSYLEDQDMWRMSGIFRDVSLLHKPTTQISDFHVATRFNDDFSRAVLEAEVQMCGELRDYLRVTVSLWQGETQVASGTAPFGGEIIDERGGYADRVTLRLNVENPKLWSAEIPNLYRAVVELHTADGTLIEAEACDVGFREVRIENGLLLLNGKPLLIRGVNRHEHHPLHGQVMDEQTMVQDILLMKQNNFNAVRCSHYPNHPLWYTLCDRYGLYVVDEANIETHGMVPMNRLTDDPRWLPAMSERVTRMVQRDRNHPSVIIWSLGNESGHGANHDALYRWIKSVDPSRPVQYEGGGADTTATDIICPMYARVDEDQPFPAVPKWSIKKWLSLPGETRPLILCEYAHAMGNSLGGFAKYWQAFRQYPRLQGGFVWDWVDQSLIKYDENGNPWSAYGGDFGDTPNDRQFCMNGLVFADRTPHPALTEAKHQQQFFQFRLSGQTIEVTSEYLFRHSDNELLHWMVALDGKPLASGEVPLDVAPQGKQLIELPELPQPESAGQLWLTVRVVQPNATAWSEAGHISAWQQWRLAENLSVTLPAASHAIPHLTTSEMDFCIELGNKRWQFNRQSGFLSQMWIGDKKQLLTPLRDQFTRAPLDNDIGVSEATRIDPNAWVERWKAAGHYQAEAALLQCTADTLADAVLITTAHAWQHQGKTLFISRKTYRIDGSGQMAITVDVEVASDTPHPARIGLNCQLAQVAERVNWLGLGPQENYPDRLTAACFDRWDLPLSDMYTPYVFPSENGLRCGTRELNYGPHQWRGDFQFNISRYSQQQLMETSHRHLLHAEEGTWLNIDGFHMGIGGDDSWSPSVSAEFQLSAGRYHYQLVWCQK

B1: sdAb WuN1-APEX2 fusion protein (VHH)
VHH: QVKLQQSGGGLVQAGGSLRLSCAPSGRTFSVNAMGWYRQAPGKQREPVALISTGGSTNYADSVKGRFTITRDNVKNTVYLQMNTLKPEDTAVYYCYTERWKPRGIERDWGQGTQVTVSS
B1: no binding (tested: 100 nM).

B2: sdAb WuN3-APEX2 fusion protein (VHH)
VHH: KVKLQQSGGGLVQTGGSLRLSCAPSGRTFSVNAMGWYRQAPGKQREPVALISTGGSTNYADSVKGRFTISRDNVKNTVYLQMNTLKPEDTAVYYCYTERWKPRGIERDWGQGTQVTVSS
B2: no binding (tested: 100 nM).

Source: PMC7875338 (ACS synthetic biology, 2021)
